In the Human Domainome abundance scans (Beltran et al. 2025):
± gives the uncertainty stated by the source.

B1: PDZ and LIM domain protein 2, residues 284 to 339; numbered along this chain, Q96JY6 (parent)
chain: HTCEKCSTSIANQAVRIQEGRYRHPGCYTCADCGLNLKMRGHFWVGDELYCEKHAR

Variants of: B1
Experiment: abundance fitness (aPCA) (normalised: wild type 0, dead -1); higher = more abundant; growth selection in yeast, the domain comes from the species named
Conditions: Homo sapiens

First: G46E
Second: G46V
The abundance fitness of the first is higher: 0.047 ± 0.064 for the first, -0.226 ± 0.081 for the second.

Compared with G46T, G46F is lower in abundance fitness: -0.202 ± 0.095 for the first, -0.624 ± 0.24 for the second.

G46H and G46L are within error of each other in abundance fitness: -0.238 ± 0.19 for the first, -0.134 ± 0.068 for the second.

First: G46W
Second: D47T
The abundance fitness of the first is lower: -0.429 ± 0.17 for the first, -0.047 ± 0.068 for the second.

D47N and D47W are within error of each other in abundance fitness: -0.11 ± 0.14 for the first, -0.1 ± 0.059 for the second.

Compared with D47S, D47Y is lower in abundance fitness: 0.004 ± 0.077 for the first, -0.224 ± 0.098 for the second.

D47K and D47L are within error of each other in abundance fitness: 0.052 ± 0.12 for the first, -0.026 ± 0.073 for the second.

D47M and D47F are within error of each other in abundance fitness: -0.086 ± 0.11 for the first, -0.339 ± 0.21 for the second.

D47R and D47H are within error of each other in abundance fitness: 0.008 ± 0.061 for the first, -0.136 ± 0.098 for the second.

D47E and D47I are within error of each other in abundance fitness: -0.12 ± 0.14 for the first, -0.135 ± 0.081 for the second.

D47G and D47C are within error of each other in abundance fitness: -0.11 ± 0.075 for the first, -0.002 ± 0.11 for the second.

Going from D47V to L35Y, the abundance fitness rises from -0.229 ± 0.089 to 0.01 ± 0.12.

First: L35S
Second: L35R
The abundance fitness of the first is higher: 0.005 ± 0.07 for the first, -0.187 ± 0.074 for the second.

L35V and L35H are within error of each other in abundance fitness: 0.053 ± 0.064 for the first, -0.015 ± 0.089 for the second.

L35M and L35T are within error of each other in abundance fitness: 0.102 ± 0.12 for the first, 0.167 ± 0.11 for the second.

L35N and L35I are within error of each other in abundance fitness: 0.062 ± 0.14 for the first, 0.05 ± 0.082 for the second.

Compared with L35C, L35D is higher in abundance fitness: -0.214 ± 0.14 for the first, 0.202 ± 0.087 for the second.

L35A and L35G are within error of each other in abundance fitness: 0.102 ± 0.072 for the first, 0.053 ± 0.081 for the second.

Compared with L35E, L35P is lower in abundance fitness: 0.086 ± 0.086 for the first, -0.518 ± 0.14 for the second.

Going from L35F to L35W, the abundance fitness falls from 0.178 ± 0.13 to -0.054 ± 0.088.

R40Q and R40P are within error of each other in abundance fitness: -0.091 ± 0.11 for the first, 0.14 ± 0.13 for the second.

Going from R40I to R40G, the abundance fitness rises from -0.293 ± 0.12 to 0.219 ± 0.061.

Compared with R40S, R40H is higher in abundance fitness: 0.079 ± 0.073 for the first, 0.274 ± 0.11 for the second.

First: R40K
Second: R40Y
The abundance fitness of the first is higher: 0.188 ± 0.079 for the first, -0.163 ± 0.12 for the second.

R40F and R40T are within error of each other in abundance fitness: -0.156 ± 0.098 for the first, -0.009 ± 0.1 for the second.

R40A and R40E are within error of each other in abundance fitness: 0.041 ± 0.12 for the first, 0.066 ± 0.071 for the second.

R40D and R40L are within error of each other in abundance fitness: 0.027 ± 0.16 for the first, 0.129 ± 0.074 for the second.

R40N and R40C are within error of each other in abundance fitness: 0.21 ± 0.13 for the first, 0.221 ± 0.1 for the second.

R40M and R40V are within error of each other in abundance fitness: 0.063 ± 0.059 for the first, 0.092 ± 0.063 for the second.

F43G and F43P are within error of each other in abundance fitness: -0.048 ± 0.049 for the first, -0.058 ± 0.084 for the second.

F43M and F43N are within error of each other in abundance fitness: -0.208 ± 0.13 for the first, 0.071 ± 0.19 for the second.

First: F43R
Second: F43W
The abundance fitness of the first is lower: -0.138 ± 0.071 for the first, 0.099 ± 0.074 for the second.

F43V and F43K are within error of each other in abundance fitness: -0.423 ± 0.093 for the first, -0.381 ± 0.12 for the second.

F43E and F43L are within error of each other in abundance fitness: -0.057 ± 0.1 for the first, -0.048 ± 0.066 for the second.

Compared with F43Y, F43C is higher in abundance fitness: -0.145 ± 0.11 for the first, 0.101 ± 0.13 for the second.

F43A and F43T are within error of each other in abundance fitness: -0.189 ± 0.088 for the first, -0.04 ± 0.085 for the second.

F43S and F43I are within error of each other in abundance fitness: -0.056 ± 0.084 for the first, -0.084 ± 0.17 for the second.

Compared with F43Q, F43D is higher in abundance fitness: -0.26 ± 0.13 for the first, 0.087 ± 0.066 for the second.

Compared with K38I, K38Y is higher in abundance fitness: -0.703 ± 0.22 for the first, -0.037 ± 0.14 for the second.

Compared with K38R, K38L is lower in abundance fitness: -0.366 ± 0.076 for the first, -0.702 ± 0.1 for the second.

Compared with K38F, K38T is higher in abundance fitness: -0.495 ± 0.17 for the first, -0.115 ± 0.12 for the second.

First: K38G
Second: K38E
The abundance fitness of the first is lower: 0.103 ± 0.056 for the first, 0.311 ± 0.071 for the second.

First: K38A
Second: K38V
The abundance fitness of the first is higher: 0.189 ± 0.1 for the first, -0.447 ± 0.098 for the second.

K38S and K38M are within error of each other in abundance fitness: 0.056 ± 0.076 for the first, -0.08 ± 0.098 for the second.

K38C and K38Q are within error of each other in abundance fitness: -0.24 ± 0.083 for the first, -0.263 ± 0.16 for the second.

First: K38N
Second: K38W
The abundance fitness of the first is higher: -0.124 ± 0.15 for the first, -0.445 ± 0.13 for the second.

K38H and L37M are within error of each other in abundance fitness: -0.197 ± 0.16 for the first, -0.178 ± 0.1 for the second.

L37V and L37F are within error of each other in abundance fitness: -0.109 ± 0.064 for the first, -0.262 ± 0.22 for the second.

L37K and L37W are within error of each other in abundance fitness: -0.502 ± 0.14 for the first, -0.731 ± 0.17 for the second.

Going from L37D to L37A, the abundance fitness falls from -0.249 ± 0.14 to -0.601 ± 0.071.

L37R and L37Y are within error of each other in abundance fitness: -0.565 ± 0.076 for the first, -0.38 ± 0.17 for the second.

First: L37G
Second: L37S
The abundance fitness of the first is higher: -0.288 ± 0.075 for the first, -0.614 ± 0.12 for the second.

Going from L37E to L37Q, the abundance fitness falls from -0.407 ± 0.068 to -0.599 ± 0.1.

L37P and L37T are within error of each other in abundance fitness: -0.442 ± 0.14 for the first, -0.395 ± 0.12 for the second.

Compared with L37H, L37I is higher in abundance fitness: -0.807 ± 0.17 for the first, -0.322 ± 0.23 for the second.

L37C and G41H are within error of each other in abundance fitness: -0.3 ± 0.13 for the first, -0.682 ± 0.36 for the second.

G41L and G41M are within error of each other in abundance fitness: -0.437 ± 0.061 for the first, -0.386 ± 0.09 for the second.

First: G41V
Second: G41Q
The abundance fitness of the first is lower: -0.434 ± 0.088 for the first, -0.076 ± 0.086 for the second.

G41Y and G41I are within error of each other in abundance fitness: -0.395 ± 0.2 for the first, -0.673 ± 0.11 for the second.

G41R and G41N are within error of each other in abundance fitness: -0.216 ± 0.067 for the first, -0.146 ± 0.22 for the second.

Going from G41S to G41A, the abundance fitness rises from -0.436 ± 0.12 to -0.139 ± 0.058.

G41P and G41F are within error of each other in abundance fitness: -0.025 ± 0.12 for the first, -0.259 ± 0.18 for the second.

Going from G41E to G41C, the abundance fitness falls from -0.191 ± 0.088 to -0.408 ± 0.095.

G41K and G41T are within error of each other in abundance fitness: -0.169 ± 0.12 for the first, -0.083 ± 0.095 for the second.

First: G41W
Second: G41D
The abundance fitness of the first is lower: -0.797 ± 0.072 for the first, -0.088 ± 0.15 for the second.

First: E48Y
Second: E48V
The abundance fitness of the first is lower: -0.235 ± 0.075 for the first, -0.011 ± 0.095 for the second.

E48S and E48I are within error of each other in abundance fitness: -0.074 ± 0.11 for the first, -0.174 ± 0.11 for the second.

E48C and E48D are within error of each other in abundance fitness: -0.289 ± 0.23 for the first, -0.065 ± 0.19 for the second.

E48M and E48L are within error of each other in abundance fitness: -0.18 ± 0.12 for the first, -0.082 ± 0.09 for the second.

E48Q and E48H are within error of each other in abundance fitness: -0.292 ± 0.14 for the first, -0.084 ± 0.32 for the second.

Going from E48N to E48T, the abundance fitness falls from 0.203 ± 0.14 to -0.286 ± 0.12.

Compared with E48P, E48A is higher in abundance fitness: -0.788 ± 0.1 for the first, -0.091 ± 0.061 for the second.

E48G and E48R are within error of each other in abundance fitness: 0.079 ± 0.079 for the first, -0.079 ± 0.08 for the second.

E48K and Y50D are within error of each other in abundance fitness: -0.034 ± 0.12 for the first, -0.079 ± 0.29 for the second.

First: Y50A
Second: Y50E
The abundance fitness of the first is higher: -0.188 ± 0.086 for the first, -0.673 ± 0.18 for the second.

W44Y and W44E are within error of each other in abundance fitness: 0.128 ± 0.19 for the first, 0.139 ± 0.092 for the second.

W44T and W44F are within error of each other in abundance fitness: -0.232 ± 0.14 for the first, 0.025 ± 0.12 for the second.

W44A and W44P are within error of each other in abundance fitness: 0.163 ± 0.062 for the first, 0.205 ± 0.064 for the second.

W44C and W44Q are within error of each other in abundance fitness: 0.005 ± 0.15 for the first, 0.096 ± 0.13 for the second.

W44K and W44R are within error of each other in abundance fitness: -0.208 ± 0.14 for the first, -0.045 ± 0.073 for the second.

W44S and W44H are within error of each other in abundance fitness: 0.027 ± 0.098 for the first, 0.15 ± 0.084 for the second.

W44L and W44M are within error of each other in abundance fitness: 0.096 ± 0.057 for the first, -0.034 ± 0.13 for the second.

Compared with W44I, W44N is lower in abundance fitness: 0.352 ± 0.14 for the first, -0.24 ± 0.25 for the second.

Work on W44V yielded an abundance fitness of 0.044 ± 0.09.
